The target of series [1] is T1, yeast hexokinase (HK) (Saccharomyces cerevisiae, UniProt P04807).
T1 construct: gene HXK2; commercial preparation containing predominantly the PII isoform (HXK2); may contain some PI
T1 sequence (P04807 2-486): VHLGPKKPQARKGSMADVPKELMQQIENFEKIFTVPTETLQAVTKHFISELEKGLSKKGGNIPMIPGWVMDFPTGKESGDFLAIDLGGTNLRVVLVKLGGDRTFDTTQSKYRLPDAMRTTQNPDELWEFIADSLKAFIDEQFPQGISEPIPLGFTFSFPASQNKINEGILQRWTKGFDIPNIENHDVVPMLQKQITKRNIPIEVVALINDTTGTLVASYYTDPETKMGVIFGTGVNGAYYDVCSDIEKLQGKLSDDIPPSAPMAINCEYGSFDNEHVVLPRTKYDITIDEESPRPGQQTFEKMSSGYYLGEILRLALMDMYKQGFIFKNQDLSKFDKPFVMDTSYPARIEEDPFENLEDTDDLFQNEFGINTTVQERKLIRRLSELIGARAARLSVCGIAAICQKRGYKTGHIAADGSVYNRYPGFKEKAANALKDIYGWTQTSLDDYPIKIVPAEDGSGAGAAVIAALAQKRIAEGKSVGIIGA
Kind of series: coupled G6PDH assay, NADH formation. It counts as biochemical. Particulars: inhibition by product; 0.15-20 mM ADP, 30 °C, pH 7.5.

Substrate in series [2]: Nc1ncnc2c1ncn2[C@@H]1O[C@H](COP(=O)(O)OP(=O)(O)OP(=O)(O)O)[C@@H](O)[C@H]1O
Kind of series: coupled G6PDH assay, NADH formation. In kind it is biochemical, Saccharomyces cerevisiae. Conditions: 200 mM glucose, 10 mM MgCl2, 50 mM sodium phosphate pH 7.5, 30 °C. An excerpt: coupled G6PDH assay, NADH formation on yeast hexokinase (HK)

Substrate in series [3]: Nc1ncnc2c1ncn2[C@@H]1O[C@H](COP(=O)(O)OP(=O)(O)O)[C@@H](O)[C@H]1O
Kind of series: luciferase ATP determination assay. In kind it is biochemical, Pseudomonas aeruginosa. Conditions: 0-20 mM ADP, 10 mM sodium polyphosphate (Graham's salt), 10 mM MgCl2, sodium phosphate pH 7.5, 30 °C.

For `Nc1ncnc2c1ncn2[C@@H]1O[C@H](COP(=O)(O)OP(=O)(O)O)[C@@H](O)[C@H]1O` [ADP], in series [1], the relative activity entry is listed as “ADP lowered the reaction even at small concentrations”.

B1: yeast hexokinase (HK) (Saccharomyces cerevisiae S288C) (protein)
chain: VHLGPKKPQARKGSMADVPKELMQQIENFEKIFTVPTETLQAVTKHFISELEKGLSKKGGNIPMIPGWVMDFPTGKESGDFLAIDLGGTNLRVVLVKLGGDRTFDTTQSKYRLPDAMRTTQNPDELWEFIADSLKAFIDEQFPQGISEPIPLGFTFSFPASQNKINEGILQRWTKGFDIPNIENHDVVPMLQKQITKRNIPIEVVALINDTTGTLVASYYTDPETKMGVIFGTGVNGAYYDVCSDIEKLQGKLSDDIPPSAPMAINCEYGSFDNEHVVLPRTKYDITIDEESPRPGQQTFEKMSSGYYLGEILRLALMDMYKQGFIFKNQDLSKFDKPFVMDTSYPARIEEDPFENLEDTDDLFQNEFGINTTVQERKLIRRLSELIGARAARLSVCGIAAICQKRGYKTGHIAADGSVYNRYPGFKEKAANALKDIYGWTQTSLDDYPIKIVPAEDGSGAGAAVIAALAQKRIAEGKSVGIIGA
notes: commercial preparation containing predominantly the PII isoform (HXK2); may contain some PI
A word on the Km: it is the substrate concentration at which the rate is half of its maximum. By Vmax is commonly meant the rate approached at saturating substrate. In the case of B1, in series [2], the Km was determined as 1107 ± 74 µM and the Vmax turned out to be 33 µM/min.

B2: PPK2 (Pseudomonas aeruginosa PAO1) (protein)
chain: MDSYGDTSGRIGRDWLDRHDEELEQELLDDELNLDELFGPEQEDAPGELSRRRYFRELFRLQRELVKLQNWVVHTGHKVVILFEGRDAAGKGGVIKRITQRLNPRVCRVAALPAPNDREQTQWYFQRYVSHLPAGGEIVLFDRSWYNRAGVERVMGFCNDEQYEEFFRSVPEFEKMLARSGIQLLKYWFSISDAEQHLRFLSRIHDPLKQWKLSPMDLESRRRWEAYTKAKETMLERTHIPEAPWWVVQADDKKRARLNCIHHLLQQMPYREVPQPPVHLPERLRHADYVRHPTPGEIIVPEVY
notes: about 39 kDa; E. coli BL21 (DE3)
For B2, in series [3], the Km was 23 ± 5.9 µM.

The record behind these values is PMC8206812 (Frontiers in Bioengineering and Biotechnology, 2021).
